Test results published in PMC4756830 (Nucleic Acids Research, 2015).

Target: the molecule itself
Assay: SEC-MALS

B1: GabR from Bacillus subtilis with C-terminal His6-tag (natural protein)
chain: MDITITLDRSEQADYIYQQIYQKLKKEILSRNLLPHSKVPSKRELAENLKVSVNSVNSAYQQLLAEGYLYAIERKGFFVEELDMFSAEEHPPFALPDDLKEIHIDQSDWISFSHMSSDTDHFPIKSWFRCEQKAASRSYRTLGDMSHPQGIYEVRAAITRLISLTRGVKCRPEQMIIGAGTQVLMQLLTELLPKEAVYAMEEPGYRRMYQLLKNAGKQVKTIMLDEKGMSIAEITRQQPDVLVTTPSHQFPSGTIMPVSRRIQLLNWAAEEPRRYIIEDDYDSEFTYDVDSIPALQSLDRFQNVIYMGTFSKSLLPGLRISYMVLPPELLRAYKQRGYDLQTCSSLTQLTLQEFIESGEYQKHIKKMKQHYKEKRERLITALEAEFSGEVTVKGANAGLHFVTEFDTRRTEQDILSHAAGLQLEIFGMSRFNLKENKRQTGRPALIIGFARLKEEDIQEGVQRLFKAVYGHKKIPVTGD
B1 was tested. Which “stoichiometry N” value did it give?
The value was 2.
